Measurements: paper PMC11229371, “The activity of CobB1 protein deacetylase contributes to nucleoid compaction in Streptomyces venezuelae spores by increasing HupS affinity for DNA” (Nucleic Acids Research, 2024)

Experiments:
[1] = target: T1, His-HupS acetylated in vitro (+AcP) (Streptomyces venezuelae) (UniProt F2R5C9); assay: BLI; conditions: 1 mM Mg2+; lysine-acetylated; BLI: 100 mM Tris-HCl pH 8.0, 200 mM NaCl, 1 mM MgCl2, 0.005% Tween-20, 0.1 mg/ml BSA, 30 C; EMSA: 50 mM Tris-HCl pH 8.0, 150 mM NaCl, 0.02% Tween-20, 10 mM Mg …
T1 sequence: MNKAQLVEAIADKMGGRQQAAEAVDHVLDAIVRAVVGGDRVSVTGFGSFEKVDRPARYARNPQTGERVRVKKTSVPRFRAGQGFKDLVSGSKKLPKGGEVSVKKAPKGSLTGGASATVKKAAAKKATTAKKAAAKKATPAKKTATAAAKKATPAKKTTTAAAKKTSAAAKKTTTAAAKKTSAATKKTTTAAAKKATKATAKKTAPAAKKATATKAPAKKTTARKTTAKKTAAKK

[2] = target: T2, His-HupS (nonacetylated, -AcP) (Streptomyces venezuelae) (UniProt F2R5C9); assay: BLI; conditions: 1 mM Mg2+; BLI: 100 mM Tris-HCl pH 8.0, 200 mM NaCl, 1 mM MgCl2, 0.005% Tween-20, 0.1 mg/ml BSA, 30 C; EMSA: 50 mM Tris-HCl pH 8.0, 150 mM NaCl, 0.02% Tween-20, 10 mM Mg …
T2 sequence: T1 sequence

| Substance | Kd [1] | Kd [2] |
| --- | --- | --- |
| one-end biotinylated dsDNA 300 bp | 28.6 nM | 17.4 nM |
| two-ends biotinylated dsDNA 300 bp | 20 nM | 11.3 nM |
